Results taken from publication PMC2990918.

Target: normal undigested taxol microtubules (αβ-MTs) of porcine brain tubulin (porcine (brain)) (UniProt P02550)
Assay: co-sedimentation

CLIP-170 MT-binding domain fragment H1^1–350 (from UniProt P30622 1-350) (domain or fragment)
Kd: 510 nM
percent dissociated at 100 mM NaCl: 30%
